Measurements reported in the supplement of paper PMC9170038.

Test system: MS2 coat protein
Test: apparent KD of MS2 coat protein; designed switch direction (-1 OFF switch, 1 ON switch): 1; higher = weaker reporter binding
Outline: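 The buffer was Tris-HCl pH 7.5 with KCl, MgCl2, BSA, DTT, tRNA and Tween-20. In it, SNAP-549-labelled MS2 coat protein was titrated in doubling steps from 0.7 or 1.5 nM to 3 µM over chip-bound RNA switches transcribed by stalled E. coli RNA polymerase on Illumina chips. Apparent KD is the per-design median over clusters of curve fits to normalised fluorescence.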

[1] = input ligand: microRNA oligo, concentration not stated
[2] = Eterna round: R95, input ligand: FMN 200 uM
[3] = Eterna round: R95, input ligand: microRNA oligo, concentration not stated
[4] = Eterna round: R95, input ligand: none

Sequence | apparent KD of MS2 coat protein (input ligand: FMN 200 uM) | apparent KD of MS2 coat protein [1] | apparent KD of MS2 coat protein (input ligand: none) | apparent KD of MS2 coat protein [2] | apparent KD of MS2 coat protein [3] | apparent KD of MS2 coat protein [4]
GGAAUGUGAUGUUACAUGAGGAUCACCCAUGUAGUGACAACUAAGGAUAUCUGAAAGGAAGGAGAGGAGAAGGUAGGAUCACAA [AK SSNG3-V2-16] (Eterna round: R96, puzzle: Same State NG 3) | 15.2 nM | 24.1 nM | 40.8 nM |  |  | 
GGACGUCAACUCAACAAUUAAACAUGAGGAUCACCCAUGUCACAGGAUAUGGAUCCUAAUUGGAUCCAGAAGGGUGAGACGUCC [Fiskers NG3ss - 42] (Eterna round: R96, puzzle: Same State NG 3) | 95.9 nM | 100 nM | 79.2 nM |  |  | 
GGAGAACAUGAGGAUCACCCAUGUGAGAGGGAUGUAGGAUAUGUGAGGAGUAAAGGAGGGACAGAAGGACAGAGAU [JR_SS!_Sub068] (Eterna round: R96, puzzle: Same State 1) |  | 30.4 nM |  |  |  | 
GGAGAACAUGAGGAUCACCCAUGUGAGAGGGAUGUAGGAUAUGUGAGGAGUAAAGGAGGGACAGAAGGACAGAGAU [JR_SS!_Sub068] (puzzle: Same State 1) |  |  |  | 37.4 nM | 40.5 nM | 47.7 nM
GGAGCCAAGGCAGGAUAUUCAUAUUAAAUAACAUGAGGAUCACCCAUGUAGGCCAGAAGGCCUUGGGAGAAGGGCCAUGGCUCG [Xeonanis - 13 mod21] (Eterna round: R96, puzzle: Same State NG 2) | 21.1 nM | 109 nM | 189 nM |  |  | 
GGAGCCGGCACCGAGGAUAUUCAUAUUAAAACAUGAGGAUCACCCAUGUAGGCCAGAAGGCCUUGGGAGAAGGCGGAUCGGCUCA [Xeonanis - 6] (puzzle: Same State 2) |  |  |  | 29.5 nM | 376 nM | 491 nM
GGAGCCGGCACUGAGGAUAUUCAUAUUAAAACAUGAGGAUCACCCAUGUAGGCCAGAAGGCCUUGGGAGAAGGCAGGUCGGCCCG [Bibimaor] (Eterna round: R96, puzzle: Same State 2) | 21.7 nM | 250 nM | 311 nM |  |  | 
GGAGCCGGCACUGAGGAUAUUCAUAUUAAAACAUGAGGAUCACCCAUGUGGGCCAGAAGGCCUUGGGAGAAGGCAGGUCGACUCG [Diqureveri - 3] (puzzle: Same State 2) |  |  |  | 18.5 nM | 145 nM | 243 nM
GGAGCCGGCACUGAGGAUAUUCAUAUUUAAACAUGAGGAUCACCCAUGUAGGCCAGAAGGCCUUGGGAGAAGGCAGGUCGGCUCG [salish99_ss2_r3_076] (puzzle: Same State 2) |  |  |  | 26 nM | 216 nM | 493 nM
GGAGCCGGCCUAGGAUAUUUCAUAAACAAACAUGAGGAUCACCCAUGUAGGCCAGAAGGCCUUGGGAAGAAGGAGGUCGGCUCC [Loop Effect - C27] (Eterna round: R96, puzzle: Same State NG 2) | 22.1 nM | 32.2 nM | 45.2 nM |  |  | 
GGAGCCGGCCUAGGAUAUUUCAUAAAUAAACAUGAGGAUCACCCAUGUAGGCCAGAAGGCCUUGGGAAGAAGGAGGUCGGCUCC [Loop Effect - U27] (Eterna round: R96, puzzle: Same State NG 2) | 9.58 nM | 30.2 nM | 33.9 nM |  |  | 
GGAGCCGGCCUAGGAUAUUUCAUAAUUAAACAUGAGGAUCACCCAUGUAGGCCAGAAGGCCUUGGGAAGAAGGAGGUCGGCUCC [Loop Effect - U26,U27] (Eterna round: R96, puzzle: Same State NG 2) | 12.5 nM | 39 nM | 82.3 nM |  |  | 
GGAGCCGGCCUAGGAUAUUUCAUUAAAAAACAUGAGGAUCACCCAUGUAGGCCAGAAGGCCUUGGGAAGAAGGAGGUCGGCUCC [Loop Effect - U24] (Eterna round: R96, puzzle: Same State NG 2) | 12.7 nM | 16.2 nM | 24.6 nM |  |  | 
GGAGCCGGCCUAGGAUAUUUCAUUAAAUAACAUGAGGAUCACCCAUGUAGGCCAGAAGGCCUUGGGAAGAAGGAGGUCGGCUCC [Loop Effect - U24,U28] (Eterna round: R96, puzzle: Same State NG 2) | 12.2 nM | 35 nM | 46.3 nM |  |  | 
GGAGCCGGUACUGAGGAUAUUCAUAUUAAAACAUGAGGAUCACCCAUGUAGGCCAGAAGGCCUUGGGAGAAGGCGGAUCGGCUCC [Biseusra - 2] (puzzle: Same State 2) |  |  |  | 22 nM | 180 nM | 417 nM
GGAGGACAUGAGGAUCACCCAUGUGGAUGGGCGCUAGGAUAUGCGAGAGGGAAGAGUGGAGCAGAAGGAGUGGGUU [JR_SS1_Sub044] (puzzle: Same State 1) |  |  |  |  | 40 nM | 

Sequence | apparent KD of MS2 coat protein (input ligand: FMN 200 uM) | apparent KD of MS2 coat protein [1] | apparent KD of MS2 coat protein (input ligand: none) | apparent KD of MS2 coat protein [2] | apparent KD of MS2 coat protein [3] | apparent KD of MS2 coat protein [4]
GGAUGAUGGACAGGAUAUUGAUUGUAAUGGUGUCAAGAAGGGUCUUUGAUUUAAACGACCAGUUACAUGAGGAUCACCCAUGUU [JR_SSNG1_Sub031] (Eterna round: R96, puzzle: Same State NG 1) | 133 nM | 107 nM | 205 nM |  |  | 
GGCAAUCGCAUUCGAUUGCCUGAGCAUGUACAUGAGGAUCACCCAUGUCAUGUACAGGCUUUUUGCUCGUACUUAUA (puzzle: Sensor for hsa-mir-208a) |  |  |  | 91.6 nM | 14.9 nM | 135 nM
GGCCUGAGUCAAGGAUAUGCUACCGUUUCGGUAGCAGAAGGUGAUCACAUGAGGAUCACCCAUGUUUACGCGAAGACGCGCGCC (Eterna round: R96, puzzle: Same State NG 1) | 128 nM | 56.7 nM | 35.7 nM |  |  | 
GGCUAUCGCAUUCGAUAGCCUGAGCAUGUACAUGAGGAUCACCCAUGUCAUGUACAGGCUUUUUGCUCGUACUUAUA (puzzle: Sensor for hsa-mir-208a) |  |  |  | 71 nM | 13.6 nM | 93.4 nM
GGGAGACAUGAGGAUCACCCAUGUGAGAAGAGGCGAGGAUAUCGAAAAAAAAAAAAAAAACGAGAAGGCGCGAGAU [salish99-SS1-004] (Eterna round: R96, puzzle: Same State 1) | 43.5 nM | 133 nM | 115 nM |  |  | 
GGGCCAACGAGCGAGGAUAUGGCCUCGGACACAUGAGGAUCACCCAUGUCGAAAAGGUCAGGAGGCUAGAAGGCGUAAAAUGCCA [Tiqusoor] (puzzle: Same State 2) |  |  |  | 11.7 nM | 10.8 nM | 13.1 nM
GGUAGGUUACUACCAAUCACAUGAGGAUCACCCAUGUUUUGGGAGGAUAUGGUACCUAUUUGGUACCAGAAGGCCUUAUUAAUU [Fiskers NG3ss - 12] (Eterna round: R96, puzzle: Same State NG 3) | 63.6 nM | 36.2 nM | 65.3 nM |  |  | 
GGUCCAGCCUGAGCUGGACAAAAGCAUGUACAUGAGGAUCACCCAUGUCAUGUACAAGCUUUUUGCUCGUCUUAAUU [Mat - hsa-mir-208a - 87] (puzzle: Sensor for hsa-mir-208a) |  |  |  | 514 nM | 15.1 nM | 762 nM
GGUCCAGCCUGAGCUGGACAAAAGCAUGUACAUGAGGAUCACCCAUGUUCAUGUACAAGCUUUUUGCUCGUCUUAAC [salish99_208a_r3_038] (puzzle: Sensor for hsa-mir-208a) |  |  |  | 530 nM | 16.9 nM | 648 nM
GGUCCAGCCUGAGCUGGACAAAGGCAUGUACAUGAGGAUCACCCAUGUCAUGUACAAGCUUUUUGCUCGUCUUAAAA [JL mod - D87 - 3] (puzzle: Sensor for hsa-mir-208a) |  |  |  | 168 nM | 13.8 nM | 220 nM
GGUCGGAACCACAUGAGGAUCACCCAUGUUCCGGAAACGGUACAGGAUAUCUGUCCGAAAAGGUCAGAGAAGGGUGAACCGACC [Fiskers NG3ss - 77] (Eterna round: R96, puzzle: Same State NG 3) | 1090 nM | 349 nM | 312 nM |  |  | 
GGUCGGACCUACAUGAGGAUCACCCAUGUUCCGGAAACGGCACAGGAUAUCUGUCCGAAAAGGUCAGAGAAGGGUGAACCGACC [Fiskers NG3ss - 75] (Eterna round: R96, puzzle: Same State NG 3) | 1000 nM | 508 nM | 1880 nM |  |  | 
GGUCGGUCCAACAUGAGGAUCACCCAUGUACCGGAAACGGCAUAGGAUAUCUGUCCGAAAAGGUCAGAGAAGGGUGAACCGACC [Fiskers NG3ss - 72] (Eterna round: R96, puzzle: Same State NG 3) | 421 nM | 586 nM | 229 nM |  |  | 
GGUGCAAUAAACGCCUACAUGAGGAUCACCCAUGUAUGUAGGCAGGAUAUCGUUUGCAAAGCAAACGAGAAGGGCUGUAGUACC [Mat - Same State NG 3 - JL Mod - D41] (Eterna round: R96, puzzle: Same State NG 3) | 51.5 nM | 82.3 nM | 142 nM |  |  | 
GGUGCCAAUAAAGCCUACAUGAGGAUCACCCAUGUAUGUAGGCAGGAUAUCGUAUGCAAAGCAUACGAGAAGGGCCGAGGCACC [Mat - Same State NG 3 - JL Mod - D56] (Eterna round: R96, puzzle: Same State NG 3) | 18.7 nM | 29.1 nM | 37 nM |  |  | 
